US7524668 (ELAN PHARMACEUTICALS, dated 2009)
Non-standard residues stand in square brackets, D forms with d. No end group written: not given here. Sta = CC(C)C[C@H](N)[C@@H](O)CC(=O)O

Legend:
[1] = biological target: T1, pET11a-T7.Tag-Gly-Ser-Met-(A-GV...QTDES) E. coli expressed recombinant human BACE (human, UniProt P56817 14-453); test: affinity chromatography on peptide-coupled resin, bound at pH 4.5, eluted at pH 8.5
T1 construct: The construct carries an N-terminal T7 tag; also called pET11a-BACE; beta secretase

[2] = biological target: T2, pQE80L-Met-Arg-Gly-Ser-(His)6-Gly-Ser-Ile-Glu-Thr-Asp-(TQH...QTDES) E. coli expressed recombinant human BACE (human, UniProt P56817 22-453); test: as above
T2 construct: N-terminal His6 tag is part of the construct; also called pQE80L-BACE; pQE-80-BACE

[3] = biological target: T3, CHO cell expressed recombinant human beta secretase proteolytically cleaved with HIV protease (human, UniProt P56817 61-453); test: affinity chromatography on peptide-coupled resin
T3 construct: N-terminus at V40 after cleavage of the F39-V40 bond; also called HIV-1 protease treated beta secretase; HIV protease treated CHO produced beta secretase

[4] = biological target: T4, pQE70-Met-Arg-Gly-Ser-Phe-Val-Glu-...Thr-Asp-Glu-Ser-Arg-Ser-(His)6 E. coli expressed recombinant human BACE (human, UniProt P56817 57-453); test: affinity chromatography on peptide-coupled resin, bound at acidic pH, eluted at pH 8.5
T4 construct: C-terminal His6 tag is part of the construct; also called pQE70-BACE
Description: Prior to purification, the pH of the refolded protein was lowered from about 10 to 8.5 with HCl. The solution was loaded onto three 50 ml Q-Sepharose columns (Pharmacia Biotech XK 50). The columns were pre-equilibrated in 0.4 M Urea, 10 mM AMPSO, pH 8.5. After refolded protein was loaded onto the columns, they were washed with 500 ml of 0.4 M Urea, 10 mM TRIS, pH 8.2. The columns were eluted with 180-245 ml of 0.75 M NaCl in 0.4 M Urea 10 mM TRIS buffer, pH 8.2. The eluates were then dialyzed versus 20 mM HEPES, pH 8.0. The samples were then removed from dialysis and dropped into 1 M NaMES, pH 5.7 (0.1 M final concentration). After centrifugation (20 Kxg) the supernatant was dropped into 1 M Na-acetate, 1 M NaMES, pH 5.0 (0.2 M Na-acetate, 0.28 M Na-MES was the final concentration). […] This solution was then applied to a 15 ml affinity column equilibrated at the same pH. The column was washed with 6 column volumes of 20 mM sodium acetate buffer pH 4.5, 150 mM NaCl. BACE was eluted at pH 8.5 using about 50 ml of 0.1 M borate buffer. […] Purified pQE70-BACE was dialyzed into 100 mM NaBorate pH 8.5.

Measured: binding result

T3 sequence (P56817 other isoform, or with tags, fused parts or gaps limits assumed): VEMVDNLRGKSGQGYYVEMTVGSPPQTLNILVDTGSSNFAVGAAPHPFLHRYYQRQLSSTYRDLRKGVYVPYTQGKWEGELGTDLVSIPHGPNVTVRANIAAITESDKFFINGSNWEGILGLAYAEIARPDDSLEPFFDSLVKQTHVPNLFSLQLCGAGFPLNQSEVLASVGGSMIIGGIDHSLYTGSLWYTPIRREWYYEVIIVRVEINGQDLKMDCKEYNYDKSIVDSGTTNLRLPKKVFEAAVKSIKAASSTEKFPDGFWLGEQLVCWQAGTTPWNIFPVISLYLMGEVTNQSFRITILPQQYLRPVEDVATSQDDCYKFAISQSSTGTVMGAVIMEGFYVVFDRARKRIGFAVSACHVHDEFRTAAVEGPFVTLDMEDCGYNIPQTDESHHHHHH
T1 sequence (P56817 other isoform, or with tags, fused parts or gaps limits assumed): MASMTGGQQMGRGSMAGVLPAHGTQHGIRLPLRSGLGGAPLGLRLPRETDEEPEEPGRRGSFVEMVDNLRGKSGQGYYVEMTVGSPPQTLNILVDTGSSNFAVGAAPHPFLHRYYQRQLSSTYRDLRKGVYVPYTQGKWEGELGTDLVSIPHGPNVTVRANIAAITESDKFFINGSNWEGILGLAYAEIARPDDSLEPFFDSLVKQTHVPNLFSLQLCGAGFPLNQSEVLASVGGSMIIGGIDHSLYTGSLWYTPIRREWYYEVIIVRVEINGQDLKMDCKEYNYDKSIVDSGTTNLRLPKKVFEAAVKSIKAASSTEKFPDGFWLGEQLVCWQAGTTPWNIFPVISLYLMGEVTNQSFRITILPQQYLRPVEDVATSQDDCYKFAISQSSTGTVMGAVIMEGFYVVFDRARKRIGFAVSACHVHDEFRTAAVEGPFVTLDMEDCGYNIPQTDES
T2 sequence (P56817 other isoform, or with tags, fused parts or gaps limits assumed): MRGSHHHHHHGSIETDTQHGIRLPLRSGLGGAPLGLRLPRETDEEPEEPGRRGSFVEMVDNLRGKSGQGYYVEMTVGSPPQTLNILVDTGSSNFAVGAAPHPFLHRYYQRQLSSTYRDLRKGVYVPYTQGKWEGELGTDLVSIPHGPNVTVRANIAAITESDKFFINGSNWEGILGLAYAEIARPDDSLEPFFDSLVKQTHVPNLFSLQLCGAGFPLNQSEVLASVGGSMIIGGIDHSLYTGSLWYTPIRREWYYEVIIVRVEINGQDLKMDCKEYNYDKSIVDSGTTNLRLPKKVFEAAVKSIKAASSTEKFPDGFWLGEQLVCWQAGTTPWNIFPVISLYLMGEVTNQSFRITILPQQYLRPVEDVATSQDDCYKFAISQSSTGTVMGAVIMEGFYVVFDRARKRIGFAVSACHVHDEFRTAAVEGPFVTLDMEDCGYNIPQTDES
T4 sequence (P56817 other isoform, or with tags, fused parts or gaps limits assumed): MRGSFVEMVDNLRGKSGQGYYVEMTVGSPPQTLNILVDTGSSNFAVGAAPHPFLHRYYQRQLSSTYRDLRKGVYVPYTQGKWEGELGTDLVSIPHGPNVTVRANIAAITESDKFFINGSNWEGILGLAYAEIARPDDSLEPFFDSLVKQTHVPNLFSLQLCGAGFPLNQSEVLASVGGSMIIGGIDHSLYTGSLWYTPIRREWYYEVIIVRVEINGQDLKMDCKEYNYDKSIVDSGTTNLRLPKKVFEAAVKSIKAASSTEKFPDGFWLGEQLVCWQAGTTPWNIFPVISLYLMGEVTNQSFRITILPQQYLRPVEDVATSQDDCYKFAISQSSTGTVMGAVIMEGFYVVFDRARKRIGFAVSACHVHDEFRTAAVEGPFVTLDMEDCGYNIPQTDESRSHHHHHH

B1: synthetic peptide Ser-Glu-Val-Asn-Sta-Val-Ala-Glu-Phe-Arg-Gly-Gly-Cys (where Sta=statine) (peptide)
peptide: SEVN[Sta]VAEFRGGC
modifications: also: coupled to Sulfolink resin via Cys
binds: all assays above
